Data taken from article PMC12467718.

Molecular target: mouse laminin (mouse)
Assay: ELISA; ELISA-type: mouse laminin coated on a black polystyrene plate, 50 µg/mL biotinylated-Gal-8, 37 °C 1 h, Streptavidin-Alexa 488, fluorescence (RFU)

Substance “biotinylated human Galectin-8 (natural protein)” has a relative fluorescence units (RFU) of 4000 RFU.
